Measured values as given in patent US20050074865.

B1: Cathepsin G (enzyme, UniProt P08311 21-244, looked up, species assumed)
Cathepsin G: IIGGRESRPHSRPYMAYLQIQSPAGQSRCGGFLVREDFVLTAAHCWGSNINVTLGAHNIQRRENTQQHITARRAIRHPQYNQRTIQNDIMLLQLSRRVRRNRNVNPVALPRAQEGLRPGTLCTVAGWGRVSMRRGTDTLREVQLRVQRDRQCLRIFGSYDPRRQICVGDRRERKAAFKGDSGGPLLCNNVAHGIVSYGKSSGVPPEVFTRVSSFLPWIRTTMRS
B2: ADAMTS4 (enzyme, UniProt O75173 213-837, looked up, species assumed)
A disintegrin and metalloproteinase with thrombospondin motifs 4: FASLSRFVETLVVADDKMAAFHGAGLKRYLLTVMAAAAKAFKHPSIRNPVSLVVTRLVILGSGEEGPQVGPSAAQTLRSFCAWQRGLNTPEDSDPDHFDTAILFTRQDLCGVSTCDTLGMADVGTVCDPARSCAIVEDDGLQSAFTAAHELGHVFNMLHDNSKPCISLNGPLSTSRHVMAPVMAHVDPEEPWSPCSARFITDFLDNGYGHCLLDKPEAPLHLPVTFPGKDYDADRQCQLTFGPDSRHCPQLPPPCAALWCSGHLNGHAMCQTKHSPWADGTPCGPAQACMGGRCLHMDQLQDFNIPQAGGWGPWGPWGDCSRTCGGGVQFSSRDCTRPVPRNGGKYCEGRRTRFRSCNTEDCPTGSALTFREEQCAAYNHRTDLFKSFPGPMDWVPRYTGVAPQDQCKLTCQAQALGYYYVLEPRVVDGTPCSPDSSSVCVQGRCIHAGCDRIIGSKKKFDKCMVCGGDGSGCSKQSGSFRKFRYGYNNVVTIPAGATHILVRQQGNPGHRSIYLALKLPDGSYALNGEYTLMPSPTDVVLPGAVSLRYSGATAASETLSGHGPLAQPLTLQVLVAGNPQDTRLRYSFFVPRPTPSTPRPTPQDWLHRRAQILEILRRRPWAGRK
B3: mesotrypsin, activated with enterokinase (C-terminal myc and His6 tags, expressed from pDEST40) (protein)
chain: IVGGYTCEENSLPYQVSLNSGSHFCGGSLISEQWVVSAAHCYKTRIQVRLGEHNIKVLEGNEQFINAAKIIRHPKYNRDTLDNDIMLIKLSSPAVINARVSTISLPTAPPAAGTECLISGWGNTLSFGADYPDELKCLDAPVLTQAECKASYPGKITNSMFCVGFLEGGKDSCQRDSGGPVVCNGQLQGVVSWGHGCAWKNRPGVYTKVYNYVDWIKDTIAANSEQKLISEEDLNSAVDHHHHHH

How the values were obtained:
[1] = molecular target: recombinant human TNFα (RDI) (UniProt P01375)
[2] = molecular target: recombinant human TNFα (RDI), P01375
Sequence of recombinant human TNFα (RDI), P01375 (P01375 77-233): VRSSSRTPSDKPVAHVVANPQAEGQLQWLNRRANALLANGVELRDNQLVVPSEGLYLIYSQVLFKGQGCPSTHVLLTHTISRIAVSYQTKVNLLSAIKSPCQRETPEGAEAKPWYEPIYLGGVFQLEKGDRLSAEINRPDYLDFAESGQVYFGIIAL

Sequence of recombinant human TNFα (RDI) (P01375 77-233): as above

Row | Protein | inactivation of TNFα bioactivity, L929 cytotoxicity bioassay after overnight digestion [1] | cleavage of TNF, Western blot with anti-TNF antibody after overnight incubation [2] | inactivation of TNF bioactivity, L929 bioassay after overnight digestion, 100 nM mesotrypsin and 100 nM TNF [2] | inactivation of TNF bioactivity, L929 bioassay after overnight digestion, mesotrypsin at 86, 43 and 22 nM with 100 nM TNF [2]
1 | B1 | Cathepsin G (column: Proteases that did not inactivate TNF) | – | – | –
2 | B2 | ADAMTS4 (column: Proteases that did not inactivate TNF) | – | – | –
3 | B3 | – | but not by enzyme (mesotrypsin) to an appreciatable degree | at equimolar ratios, mesotrypsin achieved only marginal inactivation of TNF in solution | at these concentrations, the enzyme mesotrypsin, is either inactive or marginally active towards TNF
